Data taken from PMC8297411 (Nature, 2021).
Like-named read-outs stand apart in the source and are kept apart here.

Legend:
Assay in all cases: cryo-EM structure
[1] = molecular target: VP6 of rhesus rotavirus, in DLPs and TLPs (rhesus rotavirus (RRV, G3 serotype))
[2] = molecular target: VP6 of rhesus rotavirus, in DLPs and TLPs (rhesus rotavirus (RRV, G3 serotype)); remark: listed apart in the source
[3] = molecular target: VP6 of rhesus rotavirus, in DLPs and TLPs (rhesus rotavirus (RRV, G3 serotype)); remark: listed apart in the source
[4] = molecular target: VP5* of S567C-A590C VP4 (foot-locked mutant), on recoated TLPs (rhesus rotavirus (RRV, G3 serotype))
cryo-EM structure [5] = molecular target: the molecule itself
cryo-EM structure [6] = molecular target: the molecule itself; remark: listed apart in the source
VP5* on native RRV TLPs = VP5* on native RRV TLPs (rhesus rotavirus (RRV, G3 serotype), UniProt P12473 248-776)

## VP6 of rhesus rotavirus, in DLPs and TLPs (natural protein)
[1]
  stoichiometry N: 3
[2]
  stoichiometry N: 3
[3]
  stoichiometry N: 3

## VP5* of S567C-A590C VP4 (foot-locked mutant), on recoated TLPs (domain or fragment)
[4]
  stoichiometry N: 3

B1: VP5* (C-terminal trypsin cleavage fragment of rhesus rotavirus VP4), wild type, on recoated TLPs (domain or fragment, rhesus rotavirus (RRV, G3 serotype), UniProt P12473 248-776, looked up)
chain: AQANEDIVVSKTSLWKEMQYNRDITIRFKFASSIVKSGGLGYKWSEISFKPANYQYTYTRDGEDVTAHTTCSVNGMNDFNFNGGSLPTDFIISRYEVIKENSYVYVDYWDDSQAFRNMVYVRSLAANLNSVICTGGDYSFALPVGQWPVMTGGAVSLHSAGVTLSTQFTDFVSFNSLRFRFRLTVEEPSFSITRTRVGGLYGLPAAYPNNGKEYYEVAGRLSLISLVPSNDDYQTPITNSVTVRQDLERQLGELREEFNALSQEIAMSQLIYLALLPLDMFSMFSGIKSTIDAAKSMATSVMKKFKKSGLANSVSTLTDSLSDAASSISRGASIRSVGSSASAWTDVSTQITDVSSSVSSISTQTSTISRRLRLKEMATQTEGMNFDDISAAVLKTKIDRSTQISPNTLPDIVTEASEKFIPNRAYRVINNDEVFEAGTDGRYFAYRVETFDEIPFDVQKFADLVTDSPVISAIIDFKTLKNLNDNYGISRQQAFNLLRSDPRVLREFINQDNPIIRNRIEQLIMQCRL
cryo-EM structure [5]
  stoichiometry N: 3

B2: VP7 of rhesus rotavirus, recombinant, wild type (natural protein, rhesus rotavirus (RRV, G3 serotype), UniProt P12476 51-326, looked up)
chain: QNYGINLPITGSMDTAYANSTQEETFLTSTLCLYYPTEAATEINDNSWKDTLSQLFLTKGWPTGSVYFKEYTDIASFSVDPQLYCDYNVVLMKYDATLQLDMSELADLILNEWLCNPMDITLYYYQQTDEANKWISMGSSCTIKVCPLNTQTLGIGCLTTDTATFEEVATAEKLVITDVVDGVNHKLDVTTATCTIRNCKKLGPRENVAVIQVGGSDVLDITADPTTAPQTERMMRINWKKWWQVFYTVVDYVNQIIQAMSKRSRSLNSAAFYYRI
cryo-EM structure [6]
  stoichiometry N: 3

B3: VP7 on native RRV TLPs (natural protein, rhesus rotavirus (RRV, G3 serotype), UniProt P12476 51-326, looked up)
chain: B2 chain
VP5* on native RRV TLPs
  binding result: binds
